In series [1] the target is LacI Pro320Ala Pro320Ala (Escherichia coli) (UniProt P03023). The note with it: wild-type inducer responsivity.
The target of series [2] is lac repressor (LacI) wild-type (Escherichia coli) (UniProt P03023). The note with it: no inducer; assay method not stated; cited from earlier work.
The target in series [3] is LacI Gln60Gly (Escherichia coli) (UniProt P03023).

Among the data in patent publication US20020193568 are binding signal (fold higher affinity than wild-type) and Kd values, retold here.

Where two headings read alike, the source gives them in different places. Bounds are passed on as bounds.

As for lac operator DNA (LacO), the binding signal (fold higher affinity than wild-type) in series [1] came to 10.

With lac operator O1 (LacO), the Kd in series [2] is 0.012 nM; in series [3] (1 mM IPTG, described as wild-type affinity under these conditions), above 100 nM; in series [3] (no inducer, assay method not stated, refers to Falcon and Matthews 1999, cited from earlier work), 0.004 nM.
